Laboratory results reported in patent US20140050720A1, “ULTRALONG COMPLEMENTARITY DETERMINING REGIONS AND USES THEREOF” (THE SCRIPPS RESEARCH INSTITUTE, priority 2012, published 2014).

Key:
Type in all cases: cell-based
GLP-1 receptor (GLP-1R) = target: T1, GLP-1 receptor (GLP-1R) (Homo sapiens, UniProt P43220); test: GLP-1R activation, cAMP responsive luciferase reporter in HEK293 cells; details: HEK293 cells expressing GLP-1R, 24 h
T1 construct: expressed in transfected cells; host or cells: HEK293 cells expressing surface GLP-1R and a cAMP responsive luciferase reporter
T1 sequence (P43220 24-463, species assumed): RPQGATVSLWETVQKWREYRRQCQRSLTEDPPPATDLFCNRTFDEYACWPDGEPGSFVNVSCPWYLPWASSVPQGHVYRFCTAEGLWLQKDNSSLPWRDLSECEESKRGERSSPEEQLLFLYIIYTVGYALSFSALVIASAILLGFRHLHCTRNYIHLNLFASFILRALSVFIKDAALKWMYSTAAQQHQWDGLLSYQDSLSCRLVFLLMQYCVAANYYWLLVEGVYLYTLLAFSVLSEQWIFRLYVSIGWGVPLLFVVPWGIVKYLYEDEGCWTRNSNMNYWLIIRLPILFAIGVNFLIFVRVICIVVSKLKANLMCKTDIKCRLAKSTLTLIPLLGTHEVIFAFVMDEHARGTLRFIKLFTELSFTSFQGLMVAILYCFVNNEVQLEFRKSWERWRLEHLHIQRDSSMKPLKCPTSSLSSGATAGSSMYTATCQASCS
Procedure: HEK293 cells expressing surface GLP-1R and cAMP responsive luciferase reporter gene were seeded in 384 well plates at a density of 5000 cells per well. […] Subsequently, luciferase assay was performed using One-Glo luciferase reagent according manufacture's instruction (Promega).
HEK293 cells expressing surface GLP-1R and cAMP responsive luciferase reporter gene were seeded in 384 well plates at a density of 5000 cells per well. After 24 h incubation at 37° C. with 5% CO2, cells were treated with various concentrations of peptides and BLV1H12-GLP-1 clip fusion proteins and incubated for another 24 h. Subsequently, luciferase assay was performed using One-Glo luciferase reagent according manufacture's instruction (Promega).

Human T cells = test: Inhibition of T cells activation (secreted TNF-α ELISA); details: T cells activated by anti-CD3 and CD28 antibodies, 24 h
Procedure: Human PBMCs were isolated from fresh venous blood of healthy donors through ficoll gradient centrifugation, followed by resuspension in RPMI1640 medium with 10% FBS and plating in 96-well plates at a density of 1×10^6 cells/mL. Human T cells were purified from the isolated PBMCs using T cell enrichment kit. Purified PBMCs and T cells were pretreated for 1 h at 37° C. with 5% CO2 with various concentrations of purified BLV1H12-Moka1 fusion antibodies and then activated by anti-CD3 and CD28 antibodies. After 24 h treatment, supernatant was collected for measurement of the levels of secreted TNF-α using ELISA kit.
Human T cells were purified from the isolated PBMCs using T cell enrichment kit. Purified T cells were pretreated for 1 h at 37° C. with 5% CO2 with various concentrations of purified BLV1H12-VM24 fusion antibodies and then activated by anti-CD3 and CD28 antibodies. After 24 h treatment, supernatant was collected for measurement of the levels of secreted TNF-a using ELISA kit. FIGS. 18B-C and Table 15 show the BLV1H12-VM24 fusion antibodies inhibitory activities on T cells activation.

TF-1 cells = test: Proliferation assay on TF-1 cells (AlamarBlue); details: 72 h
Procedure: TF-1 cells were obtained from American Type Culture Collection (ATCC), VA, and cultured in RPMI-1640 medium supplemented with 10% fetal bovine serum (FBS), penicillin, streptomycin and 2 ng/mL granulocyte-macrophage colony-stimulating factor (GM-CSF). For proliferation assay, TF-1 cells were washed three times with RPMI-1640 medium and resuspended in RPMI-1640 medium with 10% FBS and penicillin and streptomycin at a density of 1.5×10^5 cells/ml. Cells were plated in 96-well plates and treated with varied concentrations of BLV1H12-hEPO fusion antibodies. After 72 h of incubation at 37° C. with 5% CO2, cells viabilities were measured using AlamarBlue (Invitrogen) assay following manufacture's instruction. FIG. 21 and Table 18 show the proliferative activity of Ab-hEPO fusion antibodies on TF1 cells.

Substance	RLU (luciferase reporter) (GLP-1 receptor (GLP-1R); 1.26953 nM)	RLU (luciferase reporter) (GLP-1 receptor (GLP-1R); 2.53906 nM)	RLU (luciferase reporter) (GLP-1 receptor (GLP-1R); 5.07813 nM)	RLU (luciferase reporter) (GLP-1 receptor (GLP-1R); 10.15625 nM)	RLU (luciferase reporter) (GLP-1 receptor (GLP-1R); 20.3125 nM)	RLU (luciferase reporter) (GLP-1 receptor (GLP-1R); 40.625 nM)	RLU (luciferase reporter) (GLP-1 receptor (GLP-1R); 81.25 nM)	RLU (luciferase reporter) (GLP-1 receptor (GLP-1R); 162.5 nM)	RLU (luciferase reporter) (GLP-1 receptor (GLP-1R); 325 nM)	RLU (luciferase reporter) (GLP-1 receptor (GLP-1R); 650 nM)	F.I. (secreted TNF-α, ELISA) (Human T cells; 0.45725 nM)	F.I. (secreted TNF-α, ELISA) (Human T cells; 1.37174 nM)	F.I. (secreted TNF-α, ELISA) (Human T cells; 4.11523 nM)	F.I. (secreted TNF-α, ELISA) (Human T cells; 12.34568 nM)	F.I. (secreted TNF-α, ELISA) (Human T cells; 37.03704 nM)	F.I. (secreted TNF-α, ELISA) (Human T cells; 111.11111 nM)	F.I. (secreted TNF-α, ELISA) (Human T cells; 333.33333 nM)	F.I. (secreted TNF-α, ELISA) (Human T cells; 1000 nM)	other results
Ab-Ex4(RN): BLV1H12-Ex-4 fusion antibody treated with Factor Xa protease to release N-terminal of Ex-4	128740	153820	163020	169360	161380	154920	163700	163860	164160	155700	–	–	–	–	–	–	–	–	RLU (luciferase reporter) (GLP-1 receptor (GLP-1R); 0.00248 nM): 24120; RLU (luciferase reporter) (GLP-1 receptor (GLP-1R); 0.00496 nM): 26320; RLU (luciferase reporter) (GLP-1 receptor (GLP-1R); 0.00992 nM): 28140; RLU (luciferase reporter) (GLP-1 receptor (GLP-1R); 0.01984 nM): 33500; RLU (luciferase reporter) (GLP-1 receptor (GLP-1R); 0.03967 nM): 34180; RLU (luciferase reporter) (GLP-1 receptor (GLP-1R); 0.07935 nM): 48860; RLU (luciferase reporter) (GLP-1 receptor (GLP-1R); 0.31738 nM): 80740; RLU (luciferase reporter) (GLP-1 receptor (GLP-1R); 0.63477 nM): 117240; RLU (luciferase reporter) (GLP-1 receptor (GLP-1R); 1300 nM): 168740
Ab-Ex4: Exendin-4 with Factor Xa cleavage site and GGGGS linkers grafted into BLV1H12 CDR3H; DNA SEQ ID NO: 8	6120	6360	8500	10420	19340	27960	54800	90660	117900	134760	–	–	–	–	–	–	–	–	–
Ab-VM24 L1: Vm24 in BLV1H12 CDR3H, linker=GGGGS; DNA SEQ ID NO: 13	–	–	–	–	–	–	–	–	–	–	3427.004	3265.969	3499.82	3627.431	3575.4815	3085.439	1853.645	990.818	–
Ab-VM24-L2: Vm24 in BLV1H12 CDR3H, first linker=GGGSGGGGS and second linker=GGGGSGGGS; DNA SEQ ID NO: 14	–	–	–	–	–	–	–	–	–	–	3156.626	3345.846	3518.316	3607.5755	3508.0475	3220.2475	2465.838	1306.0215	–
Ab-hEPO: human EPO with GGGGS linkers grafted into BLV1H12 CDR3H; DNA SEQ ID NO: 10	–	–	–	–	–	–	–	–	–	–	–	–	–	–	–	–	–	–	F.I. (AlamarBlue, cell viability) (TF-1 cells; 0.00236 nM): 4198.65; F.I. (AlamarBlue, cell viability) (TF-1 cells; 0.01178 nM): 4757.196; F.I. (AlamarBlue, cell viability) (TF-1 cells; 0.05888 nM): 5265.069; F.I. (AlamarBlue, cell viability) (TF-1 cells; 0.2944 nM): 6430.723; F.I. (AlamarBlue, cell viability) (TF-1 cells; 1.472 nM): 8963.889; F.I. (AlamarBlue, cell viability) (TF-1 cells; 7.36 nM): 10330.18; F.I. (AlamarBlue, cell viability) (TF-1 cells; 36.8 nM): 10776.73; F.I. (AlamarBlue, cell viability) (TF-1 cells; 184 nM): 10330.44; F.I. (AlamarBlue, cell viability) (TF-1 cells; 4.71E−04 nM): 4324.037; F.I. (AlamarBlue, cell viability) (TF-1 cells; 9.42E−05 nM): 4361.92
